{"source": "ChEMBL document CHEMBL1143118", "about": "“6-Acetyl-7,7-dimethyl-5,6,7,8-tetrahydropterin is an activator of nitric oxide synthases” (Bioorg Med Chem Lett, 2008)", "key": {"[1]": {"substrate": "CC(=O)C1Nc2c(nc(N)[nH]c2=O)NC1(C)C", "assay": "(§1) Activity of tetrahydrobiopterin free nNOS"}, "[2]": {"substrate": "C[C@H](O)[C@H](O)[C@H]1CNc2nc(N)[nH]c(=O)c2N1", "assay": "as §1"}}, "data": [{"protein": "Nitric oxide synthase 1 (Homo sapiens), P29475 (protein) MEDHMFGVQQIQPNVISVRLFKRKVGGLGFLVKERVSKPPVIISDLIRGGAAEQSGLIQAGDIILAVNGRPLVDLSYDSALEVLRGIASETHVVLILRGPEGFTTHLETTFTGDGTPKTIRVTQPLGPPTKAVDLSHQPPAGKEQPLAVDGASGPGNGPQHAYDDGQEAGSLPHANGLAPRPPGQDPAKKATRVSLQGRGENNELLKEIEPVLSLLTSGSRGVKGGAPAKAEMKDMGIQVDRDLDGKSHKPLPLGVENDRVFNDLWGKGNVPVVLNNPYSEKEQPPTSGKQSPTKNGSPSKCPRFLKVKNWETEVVLTDTLHLKSTLETGCTEYICMGSIMHPSQHARRPEDVRTKGQLFPLAKEFIDQYYSSIKRFGSKAHMERLEEVNKEIDTTSTYQLKDTELIYGAKHAWRNASRCVGRIQWSKLQVFDARDCTTAHGMFNYICNHVKYATNKGNLRSAITIFPQRTDGKHDFRVWNSQLIRYAGYKQPDGSTLGDPANVQFTEICIQQGWKPPRGRFDVLPLLLQANGNDPELFQIPPELVLEVPIRHPKFEWFKDLGLKWYGLPAVSNMLLEIGGLEFSACPFSGWYMGTEIGVRDYCDNSRYNILEEVAKKMNLDMRKTSSLWKDQALVEINIAVLYSFQSDKVTIVDHHSATESFIKHMENEYRCRGGCPADWVWIVPPMSGSITPVFHQEMLNYRLTPSFEYQPDPWNTHVWKGTNGTPTKRRAIGFKKLAEAVKFSAKLMGQAMAKRVKATILYATETGKSQAYAKTLCEIFKHAFDAKVMSMEEYDIVHLEHETLVLVVTSTFGNGDPPENGEKFGCALMEMRHPNSVQEERKSYKVRFNSVSSYSDSQKSSGDGPDLRDNFESAGPLANVRFSVFGLGSRAYPHFCAFGHAVDTLLEELGGERILKMREGDELCGQEEAFRTWAKKVFKAACDVFCVGDDVNIEKANNSLISNDRSWKRNKFRLTFVAEAPELTQGLSNVHKKRVSAARLLSRQNLQSPKSSRSTIFVRLHTNGSQELQYQPGDHLGVFPGNHEDLVNALIERLEDAPPVNQMVKVELLEERNTALGVISNWTDELRLPPCTIFQAFKYYLDITTPPTPLQLQQFASLATSEKEKQRLLVLSKGLQEYEEWKWGKNPTIVEVLEEFPSIQMPATLLLTQLSLLQPRYYSISSSPDMYPDEVHLTVAIVSYRTRDGEGPIHHGVCSSWLNRIQADELVPCFVRGAPSFHLPRNPQVPCILVGPGTGIAPFRSFWQQRQFDIQHKGMNPCPMVLVFGCRQSKIDHIYREETLQAKNKGVFRELYTAYSREPDKPKKYVQDILQEQLAESVYRALKEQGGHIYVCGDVTMAADVLKAIQRIMTQQGKLSAEDAGVFISRMRDDNRYHEDIFGVTLRTYEVTNRLRSESIAFIEESKKDTDEVFSS", "values": [{"measurement": "kcat", "setting": "[1]", "result": 0.0878, "unit": "s⁻¹"}, {"measurement": "kcat", "setting": "[2]", "result": 0.136, "unit": "s⁻¹"}]}]}
